B1: human MCU (subunit of the purified uniplex) (natural protein, UniProt Q8NE86 51-351, looked up)
chain: VHQRIASWQNLGAVYCSTVVPSDDVTVVYQNGLPVISVRLPSRRERCQFTLKPISDSVGVFLRQLQEEDRGIDRVAIYSPDGVRVAASTGIDLLLLDDFKLVINDLTYHVRPPKRDLLSHENAATLNDVKTLVQQLYTTLCIEQHQLNKERELIERLEDLKEQLAPLEKVRIEISRKAEKRTTLVLWGGLAYMATQFGILARLTWWEYSWDIMEPVTYFITYGSAMAMYAYFVMTRQEYVYPEARDRQYLLFFHKGAKKSRFDLEKYNQLKDAIAQAEMDLKRLRDPLQVHLPLRQIGEKD
B2: human MICU2 (subunit of the purified uniplex) (natural protein, UniProt Q8IYU8 23-434, looked up)
chain: AVSRQAVRSPGPLAAAVAGAALAGAGAAWHHSRVSVAARDGSFTVSAQKNVEHGIIYIGKPSLRKQRFMQFSSLEHEGEYYMTPRDFLFSVMFEQMERKTSVKKLTKKDIEDTLSGIQTAGCGSTFFRDLGDKGLISYTEYLFLLTILTKPHSGFHVAFKMLDTDGNEMIEKREFFKLQKIISKQDDLMTVKTNETGYQEAIVKEPEINTTLQMRFFGKRGQRKLHYKEFRRFMENLQTEIQEMEFLQFSKGLSFMRKEDFAEWLLFFTNTENKDIYWKNVREKLSAGESISLDEFKSFCHFTTHLEDFAIAMQMFSLAHRPVRLAEFKRAVKVATGQELSNNILDTVFKIFDLDGDECLSHEEFLGVLKNRMHRGLWVPQHQSIQEYWKCVKKESIKGVKEVWKQAGKGLF
modifications: disulfide to MICU1 (C413 of MICU2 and C463 of MICU1 in range)

Tests used:
cryo-EM structure [1] = target: the molecule itself; experiment: cryo-EM structure
cryo-EM structure [2] = target: the molecule itself; experiment: cryo-EM structure; remark: listed apart in the source

| Protein | stoichiometry N (cryo-EM structure [1]) | binding result (cryo-EM structure [2]) |
| --- | --- | --- |
| B1 | 4 | – |
| B2 | – | binds |

From article PMC7544431 (Nature, 2020)
